# In US20250325643A1 (Genmab, published 2025):
# T1: recombinant His-tagged human FcγRIIb (Sino Biological, Cat #10259-H27H-B) (human, UniProt P31994 43-217)
# T1 construct: Bought protein; not shown: His tag
# T1 sequence (looked up): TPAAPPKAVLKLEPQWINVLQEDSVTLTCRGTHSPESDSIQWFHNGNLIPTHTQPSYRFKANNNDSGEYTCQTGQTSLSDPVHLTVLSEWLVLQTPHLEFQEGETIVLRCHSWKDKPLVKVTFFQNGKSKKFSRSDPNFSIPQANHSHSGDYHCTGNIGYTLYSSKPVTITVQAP
# T2: recombinant His-tagged human FcγRIIa 167-His (Sino Biological, Cat #10374-H27H) (human, UniProt P12318 34-218)
# T2 construct: Bought protein; also called FcγRIIa-H; FcγRIIa (167-His [H]); not shown: His tag
# T2 sequence (looked up): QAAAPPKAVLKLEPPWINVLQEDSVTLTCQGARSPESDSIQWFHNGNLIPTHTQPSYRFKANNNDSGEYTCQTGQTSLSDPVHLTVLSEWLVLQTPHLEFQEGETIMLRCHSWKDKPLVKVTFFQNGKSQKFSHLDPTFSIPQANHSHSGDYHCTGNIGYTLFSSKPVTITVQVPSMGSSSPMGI
# T3: recombinant His-tagged human FcγRIIa 167-Arg (Sino Biological, Cat #10374-H27H1-B) (human, UniProt P12318 34-218)
# T3 construct: Bought protein; also called FcγRIIa-R; FcγRIIa (167-Arg [R]); not shown: His tag
# T3 sequence (looked up): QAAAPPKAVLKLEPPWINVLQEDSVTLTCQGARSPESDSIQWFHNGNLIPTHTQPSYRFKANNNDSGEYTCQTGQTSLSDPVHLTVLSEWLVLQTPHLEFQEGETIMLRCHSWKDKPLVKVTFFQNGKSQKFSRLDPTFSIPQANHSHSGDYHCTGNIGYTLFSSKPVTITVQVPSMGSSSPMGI
# T4: human CD27 expressed on cells (T cells, transfected HEK293F cells, Daudi cells, NFκB-luc2/CD27 Jurkat … (human, UniProt P26842 20-240))
# T4 construct: also called TNFRSF7
# T4 sequence: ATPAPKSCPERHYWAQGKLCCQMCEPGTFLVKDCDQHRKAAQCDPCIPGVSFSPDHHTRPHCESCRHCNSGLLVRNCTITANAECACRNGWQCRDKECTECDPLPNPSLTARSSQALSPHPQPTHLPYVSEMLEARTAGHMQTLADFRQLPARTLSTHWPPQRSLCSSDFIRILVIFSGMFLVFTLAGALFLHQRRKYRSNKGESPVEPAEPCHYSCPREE
# T5: cynomolgus monkey CD27 expressed on cells (cynomolgus monkey T cells, transfected HEK293F cells) (cynomolgus monkey, UniProt P26842 20-260 (human entry))
# T5 construct: also called cyno CD27
# T5 chain: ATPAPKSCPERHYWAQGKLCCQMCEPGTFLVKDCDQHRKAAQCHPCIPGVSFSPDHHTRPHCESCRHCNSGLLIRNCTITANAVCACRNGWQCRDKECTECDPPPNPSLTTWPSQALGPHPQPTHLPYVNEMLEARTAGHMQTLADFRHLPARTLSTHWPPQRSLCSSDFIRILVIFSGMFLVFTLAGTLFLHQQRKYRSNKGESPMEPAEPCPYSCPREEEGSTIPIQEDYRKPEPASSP
# B1: IgG1-CD27-A-P329R-E345R (antibody)
# heavy: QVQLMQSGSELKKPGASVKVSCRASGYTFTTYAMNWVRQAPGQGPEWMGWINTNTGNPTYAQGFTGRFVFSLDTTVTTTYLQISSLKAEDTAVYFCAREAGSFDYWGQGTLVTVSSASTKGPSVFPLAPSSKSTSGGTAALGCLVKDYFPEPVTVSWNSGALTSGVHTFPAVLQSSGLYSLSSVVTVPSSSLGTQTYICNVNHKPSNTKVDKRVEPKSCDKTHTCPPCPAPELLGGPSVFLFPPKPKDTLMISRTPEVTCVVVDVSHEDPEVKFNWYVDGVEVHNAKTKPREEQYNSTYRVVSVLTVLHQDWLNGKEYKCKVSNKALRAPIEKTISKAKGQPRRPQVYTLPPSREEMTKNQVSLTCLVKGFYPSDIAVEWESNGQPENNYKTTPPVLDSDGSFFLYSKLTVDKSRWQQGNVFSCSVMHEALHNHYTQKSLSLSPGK
# light: QSALTQPASVSGSPGQSITISCTGTSSDVYYYNYVSWYQQHPGRAPKLVIYDVSNRPSGVSNRFSGSKSGNTASLTISGLRAEDEADYYCSSYTVNRVWVFGGGTKLTVLGQPKAAPSVTLFPPSSEELQANKATLVCLISDFYPGAVTVAWKADSSPVKAGVETTTPSKQSNNKYAASSYLSLTPEQWKSHRSYSCQVTHEGSTVEKTVAPTECS
# notes: also called IgG1-CD27-A-E345R-P329R
# B2: IgG1-b12-FEAR (antibody, V domains shown)
# VH: QVQLVQSGAEVKKPGASVKVSCQASGYRFSNFVIHWVRQAPGQRFEWMGWINPYNGNKEFSAKFQDRVTFTADTSANTAYMELRSLRSADTAVYYCARVGPYSWDDSPQDNYYMDVWGKGTTVIVSS
# VL: EIVLTQSPGTLSLSPGERATFSCRSSHSIRSRRVAWYQHKPGQAPRLVIHGVSNRASGISDRFSGSGSGTDFTLTITRVEPEDFALYYCQVYGASSYTFGQGTKLERK
# notes: also called ctrl; anti-HIV-gp120 antibody IgG1-b12-FEAR
# How the values were obtained:
# [1] = target: T1, recombinant His-tagged human FcγRIIb …; test: SPR (Biacore): His-tagged FcγRIIb captured on an anti-His chip, antibody injected
# [2] = target: T2, recombinant His-tagged human FcγRIIa …; test: SPR (Biacore): His-tagged FcγRIIa-H captured on an anti-His chip, antibody injected
# [3] = target: T3, recombinant His-tagged human FcγRIIa …; test: SPR (Biacore): His-tagged FcγRIIa-R captured on an anti-His chip, antibody injected
# [4] = target: T6, recombinant His-tagged human FcγRIIIa 176-Phe (Sino Biological, Cat #10389-H27H-B) (human, UniProt P08637 17-208); test: SPR (Biacore): His-tagged FcγRIIIa-F captured on an anti-His chip, antibody injected
# T6 construct: Bought protein; also called FcγRIIIa-F; FcγRIIIa (176-Phe [F]); not shown: His tag
# [5] = target: T7, recombinant His-tagged human FcγRIIIa 176-Val (Sino Biological, Cat #10389-H27H1-B) (human, UniProt P08637 17-208); test: SPR (Biacore): His-tagged FcγRIIIa-V captured on an anti-His chip, antibody injected
# T7 construct: Bought protein; also called FcγRIIIa-V; FcγRIIIa (176-Val [V]); not shown: His tag
# [6] = target: T4, human CD27 expressed on cells (T cells, …); test: flow cytometry on CD4+ T cells in human PBMC, FITC-conjugated goat anti-human IgG F(ab')2, median FITC
# Experimental: (§1) Binding of IgG1-CD27-A-P329R-E345R to CD27 on human healthy donor T cells was characterized in more detail using flow cytometry. Anti-HIV gp120 antibody variant IgG1-b12-P329R-E345R was used as non-binding control antibody (ctrl). Human PBMCs were isolated from buffy coats obtained from human healthy donors. PBMCs (1×10⁵ cells/well) in FACS buffer were added to polystyrene 96-well round-bottom plates (Greiner bio-one, Cat #650101) and pelleted by centrifugation at 300×g for 3 min at 4° C. The cells were resuspended in 50 μL/well serial antibody dilutions in FACS buffer (range 0.0015 to 10 μg/mL in 3-fold dilution steps) and incubated for 30 min at 4° C. Cells were pelleted, washed twice with FACS buffer and incubated in 50 μL/well with FITC-conjugated secondary antibody (FITC AffiniPure F(ab′)₂ fragment goat anti-human IgG, F(ab′)₂ fragment specific, Jackson ImmunoResearch, Cat #109-096-097, diluted 1:100) for 30 min at 4° C. in the dark. […] The samples were measured by flow cytometry on an LSRFortessa (BD) flow cytometer and analyzed using FlowJo software. Binding curves were analyzed using non-linear regression (sigmoidal dose-response with variable slope) using GraphPad Prism 8 software.
# [7] = target: T4, human CD27 expressed on cells (T cells, …); test: flow cytometry on CD8+ T cells in human PBMC, FITC-conjugated goat anti-human IgG F(ab')2, median FITC
# Experimental: as §1
# [8] = target: T8, recombinant His-tagged human FcγRIa (Sino Biological, Cat #10256-H08S-B) (human, UniProt P12314 16-288); test: SPR (Biacore): His-tagged FcγRIa captured on an anti-His chip, antibody injected; resonance units against antibody concentration
# T8 construct: Bought protein; not shown: His tag
# Experimental: Binding of IgG1-CD27-A-P329R-E345R to human FcγR variants was analyzed using a Biacore surface plasmon resonance (SPR) system and compared to an anti-HIV gp120 antibody IgG1-b12 (ctrl). Biacore Series S Sensor Chips CM5 (Cytiva, Cat #29104988) were covalently coated with anti-His antibody using amine-coupling and His capture kits (Cytiva, Cat #BR100050 and Cat #29234602) according to the manufacturer's instructions. […] After three cycles of buffer, antibody samples were injected for 36 cycles to generate binding curves using antibody ranges of 0-3,000 nM for FcγRI and 0-10,000 nM for the other FcγRs. Each sample that was analyzed on an FcR-coated surface (Active Surface) was also analyzed on a parallel flow-cell without FcR (Reference Surface), which was used for background correction. Dissociation from the anti-His-coated surface was performed by regeneration of the surface using 10 mM Glycine-HCl pH 1.5 (Cytiva, Cat #BR100354). Sensograms were generated using Biacore Insight Evaluation software (Cytiva) and a four-parameter logistic (4PL) fit was applied to calculate relative binding of IgG1-CD27-A-P329R-E345R against the reference sample (ctrl).
# [9] = target: T9, human C1q (from normal human serum) (human, UniProt P02745 23-245; P02746 28-253; P02747 29-245); test: flow cytometry: human T cells opsonised with the antibody, 20% normal human serum as source of C1q, FITC-labelled rabbit anti-human C1q
# T9 construct: 20% normal human serum was the source of C1q
# [10] = target: T4, human CD27 expressed on cells (T cells, …); test: flow cytometry on T cells in human PBMC, PE-labelled goat anti-human IgG, median MFI PE
# [11] = target: T5, cynomolgus monkey CD27 expressed on …; test: flow cytometry on T cells in cynomolgus monkey PBMC, PE-labelled goat anti-human IgG, median MFI PE
# T6 sequence (P08637 17-208 limits assumed): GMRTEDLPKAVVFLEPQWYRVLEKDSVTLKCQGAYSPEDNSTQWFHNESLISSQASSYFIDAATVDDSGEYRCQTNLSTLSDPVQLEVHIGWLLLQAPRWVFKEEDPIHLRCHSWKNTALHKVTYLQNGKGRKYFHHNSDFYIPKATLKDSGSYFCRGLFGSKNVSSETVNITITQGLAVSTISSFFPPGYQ
# T9 sequence (P02745 23-245 limits assumed, chain 1 of 3): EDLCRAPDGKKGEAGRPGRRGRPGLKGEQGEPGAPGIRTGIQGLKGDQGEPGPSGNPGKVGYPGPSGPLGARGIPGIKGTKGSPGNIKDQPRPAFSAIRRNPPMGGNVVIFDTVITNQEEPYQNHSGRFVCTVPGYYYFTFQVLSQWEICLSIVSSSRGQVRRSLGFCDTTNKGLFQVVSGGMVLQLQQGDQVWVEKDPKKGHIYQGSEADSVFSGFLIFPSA
# T9 sequence (P02746 28-253 limits assumed, chain 2 of 3): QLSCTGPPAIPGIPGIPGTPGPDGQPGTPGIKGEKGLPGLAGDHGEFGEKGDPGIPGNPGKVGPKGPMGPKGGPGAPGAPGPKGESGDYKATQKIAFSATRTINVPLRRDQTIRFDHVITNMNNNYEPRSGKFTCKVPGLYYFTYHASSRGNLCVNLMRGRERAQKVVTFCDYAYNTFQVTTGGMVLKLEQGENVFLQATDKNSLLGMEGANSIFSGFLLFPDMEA
# T9 sequence (P02747 29-245 limits assumed, chain 3 of 3): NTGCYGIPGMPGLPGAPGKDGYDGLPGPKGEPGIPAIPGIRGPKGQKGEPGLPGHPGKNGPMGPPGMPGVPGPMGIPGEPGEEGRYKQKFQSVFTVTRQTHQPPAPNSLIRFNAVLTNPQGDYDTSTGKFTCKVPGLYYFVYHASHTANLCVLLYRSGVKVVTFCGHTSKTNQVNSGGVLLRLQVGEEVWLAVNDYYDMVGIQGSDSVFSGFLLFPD
# T8 sequence (P12314 16-288 limits assumed, stated change not applied): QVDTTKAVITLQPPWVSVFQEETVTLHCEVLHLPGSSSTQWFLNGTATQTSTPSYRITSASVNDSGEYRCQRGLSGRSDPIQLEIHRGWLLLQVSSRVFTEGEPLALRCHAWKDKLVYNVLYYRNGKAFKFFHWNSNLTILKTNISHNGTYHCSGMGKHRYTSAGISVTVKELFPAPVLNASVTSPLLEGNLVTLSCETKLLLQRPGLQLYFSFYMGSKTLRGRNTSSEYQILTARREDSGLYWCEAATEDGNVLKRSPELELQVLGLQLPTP
# T7 sequence (P08637 17-208 F176V limits assumed): as the sequence (P08637 17-208 limits assumed) above, with F160V counted along it
Binder,binding result [1],binding result [2],binding result [3],binding result [4],binding result [5],EC50 (read off the curve) [6],EC50 (read off the curve) [7],binding result [8],binding result [9],binding result [10],binding result [11]
B1,"no binding (tested: 10,000 nM)","no binding (tested: 10,000 nM)","no binding (tested: 10,000 nM)","no binding (tested: 10,000 nM)","no binding (tested: 10,000 nM)",~0.03 µg/mL,~0.03 µg/mL,binds,no binding (tested: 15 µg/mL),–,–
B2,–,–,–,–,–,–,–,–,–,no binding (tested: 10 µg/mL),no binding (tested: 10 µg/mL)
